B1: Azoarcus group I ribozyme (parent)
chain: GUGCCUUGCGCCGGGAAACCACGCAAGGGAUGGUGUCAAAUUCGGCGAAACCUAAGCGCCCGCCCGGGCGUAUGGCAACGCCGAGCCAAGCUUCGGCGCCUGCGCCGAUGAAGGUGUAGAGACUAGACGGCACCCACCUAAGGCAAACGCUAUGGUGAAGGCAUAGUCCAGGGAGUGGCGAAAGUCACACAAACCGG

Variants of: B1
Assay: reverse-splicing fitness (ratio to wild type); higher = more active; in vitro selection; Mg2+ level not given
In short: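 An in vitro group I ribozyme library with randomized positions was T7-transcribed and gel-purified. In triplicate, 10 pmol RNA in EPPS pH 7.5 was reacted with 50 pmoles of a 30-nt RNA substrate for 1 h at 37 °C across several added MgCl2 levels (1–48 mM), then stopped with EDTA. Products were reverse transcribed from a substrate-complementary primer, PCR-amplified and sequenced (HiSeq 4000). Fitness is a variant's read proportion after selection over that before, normalised to wild type.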

Row | Variant | reverse-splicing fitness
1 | C82A A111C A120G A145C C150U C169U U176C | 0.00813
2 | C82A A111C A120G A145C C150U C169U U176A | 0.0143
3 | C82A | 0.658
4 | C82A A111C A120C A145U C150G U176G | 0.00392
5 | C82A A111C A120C A145U C150G U176A | 0.00604
6 | C82A A111C A120C A145U C150G U176C | 0.00803
7 | C82A A111C A120G A145C C150A C169G U176C | 0.0145
8 | C82A A111C A120G A145C C150A C169G U176G | 0.00557
9 | C82A A111C A120G A145C C150A C169G U176A | 0.0253
10 | C82A A111C A120G A145G C150A C169G U176C | 0.0274
11 | C82A A111C A120G A145G C150A C169G U176A | 0.017
12 | C82A A111C A120G A145G C150A C169G U176G | 0.00656
13 | C82A A111C A120C A145G U176C | 0.0274
14 | C82A A111C A120C A145G U176G | 0.00691
15 | C82A A111C A120C A145G U176A | 0.0152
16 | C82A A111C A120C A145U C169U U176A | 0.0155
17 | C82A A111C A120C A145U C169U U176C | 0.0141
18 | C82A A111C A120C A145U C169U U176G | 0.00589
19 | C82A A111C A120G A145C C169U U176C | 0.00921
20 | C82A A111C A120G A145C C169U U176G | 0.00467
21 | C82A A111C A120G A145C C169U U176A | 0.0138

Row | Variant | reverse-splicing fitness
22 | C82A A111C A120C A145C C150U U176A | 0.00941
23 | C82A A111C A120C A145C C150U U176G | 0.00571
24 | C82A A111C A120C A145C C150U U176C | 0.0125
25 | C82A A111C A120C A145C C169U U176C | 0.0141
26 | C82A A111C A120C A145C C169U U176A | 0.0123
27 | C82A A111C A120C A145C C169U U176G | 0.00595
28 | C82A A111C A120C A145C C150A U176C | 0.011
29 | C82A A111C A120C A145C C150A U176A | 0.0106
30 | C82A A111C A120C A145C C150A U176G | 0.00581
31 | C82A A111C A120G A145C C150A C169A U176G | 0.00603
32 | C82A A111C A120G A145C C150A C169A U176A | 0.01
33 | C82A A111C A120G A145C C150A C169A U176C | 0.00778
34 | C82A A111C A120G A145C C150A C169G | 0.00754
35 | C82A A111C A120G A145C C150A C169U | 0.00671
36 | C82A A111C A120G A145C C150A C169A | 0.00794
37 | C82A A111C A120G A145G C150A C169A U176C | 0.0231
38 | C82A A111C A120G A145G C150A C169A U176G | 0.00667
39 | C82A A111C A120G A145G C150A C169A U176A | 0.0181
40 | C82A A111C A120C C150U C169A | 0.0121
41 | C82A A111C A120C C150U C169U | 0.0115
42 | C82A A111C A120C C150U C169G | 0.00849

Row | Variant | reverse-splicing fitness
43 | C82A A111C A120G A145C C150G C169U U176A | 0.0089
44 | C82A A111C A120G A145C C150G C169U U176C | 0.0101
45 | C82A A111C A120G A145C C150G C169U U176G | 0.00551
46 | C82A A111C A120G A145C C150G C169A U176G | 0.00531
47 | C82A A111C A120G A145C C150G C169A U176A | 0.00786
48 | C82A A111C A120G A145C C150G C169A U176C | 0.00612
49 | C82A A111C A120C A145C C150G U176C | 0.00754
50 | C82A A111C A120C A145C C150G U176G | 0.0029
51 | C82A A111C A120C A145C C150G U176A | 0.00409
52 | C82A A111C A120C C150G C169G | 0.00682
53 | C82A A111C A120C C150G C169A | 0.00831
54 | C82A A111C A120C C150G C169U | 0.0115
55 | C82A A111C A120C A145G C150A C169U U176A | 0.0154
56 | C82A A111C A120C A145G C150A C169U U176C | 0.0136
57 | C82A A111C A120C A145G C150A C169U U176G | 0.00795
58 | C82A A111C A120G A145C C169A | 0.00659
59 | C82A A111C A120G A145C C169U | 0.00846
60 | C82A A111C A120G A145C C169G | 0.00901
61 | C82A A111C A120C A145U C169A | 0.00864
62 | C82A A111C A120C A145U C169U | 0.0133
63 | C82A A111C A120C A145U C169G | 0.0102

Row | Variant | reverse-splicing fitness
64 | C82A A111C A120C A145U C150A C169A | 0.00876
65 | C82A A111C A120C A145U C150A C169G | 0.00824
66 | C82A A111C A120C A145U C150A C169U | 0.0124
67 | C82A A111C A120G A145G C150A | 0.00888
68 | C82A A111C A120C A145U C169A U176G | 0.00807
69 | C82A A111C A120C A145U C169A U176A | 0.0132
70 | C82A A111C A120C A145U C169A U176C | 0.0162
71 | C82A A111C A120G A145C C169G U176A | 0.0239
72 | C82A A111C A120G A145C C169G U176C | 0.0156
73 | C82A A111C A120G A145C C169G U176G | 0.00472
74 | C82A A111C A120C A145C C150G C169U U176G | 0.00564
75 | C82A A111C A120C A145C C150G C169U U176C | 0.0112
76 | C82A A111C A120C A145C C150G C169U U176A | 0.00758
77 | C82A A111C A120C A145C C169G | 0.00972
78 | C82A A111C A120C A145C C169U | 0.0116
79 | C82A A111C A120C A145C C169A | 0.00691
80 | C82A A111C A120C A145U C150A C169A U176G | 0.00859
81 | C82A A111C A120C A145U C150A C169A U176C | 0.0154
82 | C82A A111C A120C A145U C150A C169A U176A | 0.0155
83 | C82A A111C A120C | 0.0246
84 | C82A A111C A120G | 0.0149
